Measurements from patent US10525113B2, “Micellar polypeptide vaccine having pegylated phospholipids as carrier” (INSTITUTE OF BIOPHYSICS, CHINESE ACADEMY OF SCIENCES, priority 2014, dated 2020).
Ends that are not written are not given here. * marks the point of attachment. Palmitoyl = CCCCCCCCCCCCCCCC(=O)*

What was measured:
[1] = Entrapment efficiency of fatty-acidified antigenic polypeptide in PEG-PE micelle (centrifugation, rhodamine fluorescence); assay type: physicochemical; conditions: lipid:MPLA (w/w) 100:1
Procedure: According to the proportions shown in Table 2 and Table 3, the micelles containing different proportions of polypeptides are prepared. The preparation process is carried out in the same manner as described in Embodiment 1. The prepared micelle vaccine solutions of different proportions are subjected to 14,000 g high-speed centrifugation for 30 minutes. The undissolved free antigenic polypeptide is separated from the antigen entrapped by micelle in the solution.
The maximal excitation wavelength of the rhodamine fluorescence labeled by the polypeptide is 535 nm and the maximum emission wavelength is 590 nm.
The antigen content in the solution is detected by fluorescence spectrophotometry, and then the effective entrapment efficiency of antigenic polypeptide is calculated according to the formula (see Table 2. Table 3, line 3). It can be seen that, in the condition where the mass ratio of PEG-PE to the fatty-acid-modified polypeptide is greater than or equal to 10:1, the entrapment efficiency is about 100%.

[2] = water / aqueous solution
Procedure: Thus, free antigenic polypeptide can be separated from the antigenic polypeptide loaded on micelle, and then the entrapment efficiency of antigenic polypeptide is calculated based on the change in the content of the antigenic polypeptide loaded on micelle in the solution. The entrapment efficiency=the amount of antigen to be entrapped/total antigen ×100%.

[3] = 100 μL subcutaneous, shoulder; 0 hour to 7 days; FIG. 3
Procedure: 20 μL of 10 mg/mL DMSO stock solution of rhodamine-labeled, fatty-acidified E7 polypeptide (sequence: palmitic acid-[sequence], rhodamine labeled in amino acid K, synthesized in Jill Biochemical Co., Ltd.) is added to 1 mL of sterile water to obtain a fluorescent polypeptide solution with the concentration of 0.2 mg/mL.
10 mg of PEG-PE powder is weighed and dissolved in 1 mL of chloroform in a test tube, and 0.2 mL of solution of rhodamine-labeled, fatty-acidified E7 polypeptide in methanol (1 mg/mL) is taken such that in micelle. The solution is gently shaken according to the method in Embodiment 1 to mix evenly. Nitrogen is used to blow and dry the solution to form a uniform thin membrane. The residual organic solvent and moisture are completely removed in a vacuum drier overnight. 1 mL of sterile normal saline is added, and 53° C. water bath incubation is conducted for 30 minutes for hydrated lipid membrane. A light purple uniform transparent solution is obtained, in which the concentration of fluorescent polypeptide is 0.2 mg/mL. […]
7 mg of DPPC and 3 mg of cholesterol are dissolved in chloroform separately and then mixed in a test tube, and 0.2 mL of solution of rhodamine-labeled, fatty-acidified E7 polypeptide in methanol (1 mg/mL) is taken. […] The concentration of fluorescence polypeptide is 0.2 mg/mL. […]

Substance | entrapment efficiency (%) ([1]; lipid:peptide (w/w) 1:1) | entrapment efficiency (%) ([1]; lipid:peptide (w/w) 2:1) | entrapment efficiency (%) ([1]; lipid:peptide (w/w) 5:1) | entrapment efficiency (%) ([1]; lipid:peptide (w/w) 10:1) | entrapment efficiency (%) ([1]; lipid:peptide (w/w) 20:1) | entrapment efficiency (%) ([1]; lipid:peptide (w/w) 50:1) | solubility / state in water [2] | subcutaneous diffusion / localized retention at injection site [3]
palmitic acid-EQLESIINFEKLTEWKD (Palmitoyl-EQLESIINFEKLTEWKD) [OT-1 Antigenic Polypeptide] | 27.91 | 40.10 | 91.76 | 100.00 | 100.00 | 100.00 |  | 
palmitic acid-GQAEPDRAHYNIVTFCCKCD (Palmitoyl-GQAEPDRAHYNIVTFCCKCD; cysteine pairing not given here) [E7 Antigenic Polypeptide] | 25.48 | 67.76 | 97.99 | 100.00 | 100.00 | 100.00 | present in an aggregated form in aqueous solution | subcutaneous localized retention at the injection site is evident
